One block for each molecule: values may come before it. Non-standard residues stand in square brackets, D forms with d. No end group written: not given here. pT = C[C@@H](OP(=O)(O)O)[C@H](N)C(=O)O
T1: His6-tagged recombinant Mis12C containing Dsn1-WT (human, UniProt Q9H410 1-356; Q96IY1 1-258; Q9H081 1-205; Q6P1K2 1-205)
T1 sequence (looked up) 1: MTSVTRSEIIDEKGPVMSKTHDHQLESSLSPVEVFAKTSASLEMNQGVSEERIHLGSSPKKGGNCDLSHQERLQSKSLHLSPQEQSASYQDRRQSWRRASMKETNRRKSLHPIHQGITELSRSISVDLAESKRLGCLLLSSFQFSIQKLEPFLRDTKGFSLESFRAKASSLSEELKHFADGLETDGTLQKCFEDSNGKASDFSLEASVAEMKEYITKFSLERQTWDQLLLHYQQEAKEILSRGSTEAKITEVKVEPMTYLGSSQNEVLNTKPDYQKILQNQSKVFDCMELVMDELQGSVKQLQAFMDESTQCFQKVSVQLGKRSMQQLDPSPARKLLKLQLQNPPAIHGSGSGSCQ
T1 sequence (looked up) 2: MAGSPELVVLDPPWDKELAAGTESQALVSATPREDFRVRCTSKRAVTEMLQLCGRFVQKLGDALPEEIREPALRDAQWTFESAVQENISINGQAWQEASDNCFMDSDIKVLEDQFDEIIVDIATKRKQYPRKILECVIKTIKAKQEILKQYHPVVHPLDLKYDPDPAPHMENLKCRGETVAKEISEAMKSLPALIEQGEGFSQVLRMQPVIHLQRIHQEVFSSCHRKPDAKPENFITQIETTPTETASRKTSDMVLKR
T1 sequence (looked up) 3: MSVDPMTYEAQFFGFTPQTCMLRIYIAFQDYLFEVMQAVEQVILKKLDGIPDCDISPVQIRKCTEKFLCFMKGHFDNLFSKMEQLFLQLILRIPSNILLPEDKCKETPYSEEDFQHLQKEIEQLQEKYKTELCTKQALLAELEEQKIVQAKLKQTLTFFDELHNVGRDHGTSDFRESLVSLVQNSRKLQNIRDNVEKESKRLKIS
T1 sequence (looked up) 4: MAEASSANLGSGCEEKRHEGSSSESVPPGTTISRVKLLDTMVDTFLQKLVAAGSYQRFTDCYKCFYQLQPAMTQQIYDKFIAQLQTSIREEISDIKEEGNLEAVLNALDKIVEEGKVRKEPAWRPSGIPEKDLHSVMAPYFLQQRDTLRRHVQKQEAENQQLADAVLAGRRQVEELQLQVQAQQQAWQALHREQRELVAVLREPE

B1: Recombinant Mis12C-WT (construct not told for this experiment) (complex)
chain 1: T1 sequence (looked up) 1
chain 2: T1 sequence (looked up) 2
chain 3: T1 sequence (looked up) 3
chain 4: T1 sequence (looked up) 4
B2: Spc24–Spc25 complex (Spc24^92–197, Spc25^70–224) (complex, human)
chain 1: EEDTRLKASLLQLTRELEELKEIEADLERQEKEVDEDTTVTIPSAVYVAQLYHQVSKIEWDYECEPGMVKGIHHGPSVAQPIHLDSTQLSRKFISDYLWSLVDTEW
chain 2: RQNKLIQEKKDNLLKLIAEVKGKKQELEVLTANIQDLKEEYSRKKETISTANKANAERLKRLQKSADLYKDRLGLEIRKIYGEKLQFIFTNIDPKNPESPFMFSLHLNEARDYEVSDSAPHLEGLAEFQENVRKTNNFSAFLANVRKAFTATVYN

What was measured:
CENP-C = CENP-C (UniProt Q03188); assay: anti-GFP IP, immunoblot; details: reference: Dsn1-WT-GFP; sites S100,S109
[1] = target: fluorescein-labeled CENP-C^1–28 peptide (human, 5FAM (fluorescein) on the N-terminus); assay: MST
[2] = target: T1, His6-tagged recombinant Mis12C …; assay: pull-down
[3] = target: B2; assay: pull-down

- binding against the reference (CENP-C): weaker
Molecule: Dsn1 (from UniProt Q9H410) Dsn1-S100A/S109A-GFP

Molecule: B1
- Kd [1]: 2100 ± 400 nM

Molecule: B2
- binding result [2]: binds

- binding result [3]: binds
Molecule: HLEEQ[pT]PRTLLKNILLTAPESSILM (peptide, UniProt Q96BT3 80-104, looked up) [synthetic phospho-T85 CENP-T peptide containing residues 80–104]

Source: publication PMC4298689 (The Journal of Cell Biology, 2015)
